{"source": "patent US20250360126", "tested_on": "T1, NPM2 (embryonic NPM1 paralog)", "T1 sequence (Q86SE8 1-214, species assumed, looked up)": "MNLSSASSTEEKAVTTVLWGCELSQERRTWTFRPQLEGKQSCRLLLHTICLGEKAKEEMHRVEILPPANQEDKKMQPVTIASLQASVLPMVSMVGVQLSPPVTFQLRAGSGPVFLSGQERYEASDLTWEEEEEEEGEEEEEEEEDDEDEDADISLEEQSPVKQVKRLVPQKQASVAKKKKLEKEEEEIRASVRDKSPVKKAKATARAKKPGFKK", "data": [{"protein": "CCP5 (cytosolic carboxypeptidase-like 5) (enzyme, UniProt Q8NDL9 1-886, looked up, species assumed) Cytosolic carboxypeptidase-like protein 5: MELRCGGLLFSSRFDSGNLAHVEKVESLSSDGEGVGGGASALTSGIASSPDYEFNVWTRPDCAETEFENGNRSWFYFSVRGGMPGKLIKINIMNMNKQSKLYSQGMAPFVRTLPTRPRWERIRDRPTFEMTETQFVLSFVHRFVEGRGATTFFAFCYPFSYSDCQELLNQLDQRFPENHPTHSSPLDTIYYHRELLCYSLDGLRVDLLTITSCHGLREDREPRLEQLFPDTSTPRPFRFAGKRIFFLSSRVHPGETPSSFVFNGFLDFILRPDDPRAQTLRRLFVFKLIPMLNPDGVVRGHYRTDSRGVNLNRQYLKPDAVLHPAIYGAKAVLLYHHVHSRLNSQSSSEHQPSSCLPPDAPVSDLEKANNLQNEAQCGHSADRHNAEAWKQTEPAEQKLNSVWIMPQQSAGLEESAPDTIPPKESGVAYYVDLHGHASKRGCFMYGNSFSDESTQVENMLYPKLISLNSAHFDFQGCNFSEKNMYARDRRDGQSKEGSGRVAIYKASGIIHSYTLECNYNTGRSVNSIPAACHDNGRASPPPPPAFPSRYTVELFEQVGRAMAIAALDMAECNPWPRIVLSEHSSLTNLRAWMLKHVRNSRGLSSTLNVGVNKKRGLRTPPKSHNGLPVSCSENTLSRARSFSTGTSAGGSSSSQQNSPQMKNSPSFPFHGSRPAGLPGLGSSTQKVTHRVLGPVREPRSQDRRRQQQPLNHRPAGSLAPSPAPTSSGPASSHKLGSCLLPDSFNIPGSSCSLLSSGDKPEAVMVIGKGLLGTGARMPCIKTRLQARPRLGRGSPPTRRGMKGSSGPTSPTPRTRESSELELGSCSATPGLPQARPPRPRSAPAFSPISCSLSDSPSWNCYSRGPLGQPEVCFVPKSPPLTVSPRV", "values": [{"measurement": "deglutamylation of substrate, blot (FIG. 2C)", "value": "the CCP5 enzyme deglutamylates NPM2"}]}]}
